In the NTF2 design screens of Basanta et al. (2020):

Assay: protease stability score; higher = more stable; yeast display proteolysis, trypsin and chymotrypsin;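 also: relative to predicted unfolded state with 0 unfolded-like and 1 meaning tenfold more protease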

Row | Sequence | protease stability score
1 | DEDEREAERSIREELEYTRTGDEDFIKRLADPHVKLNIDGQRHHGRETVVKIMVEARIKDLHIERLTVIDGRVHMRGRMEGNFNGRDTEVEVHIKLKKVNGQWHVRDFEIR | 1.14
2 | DEDERELQELREHFIRKFLTGDWEAIANLFDPNTRMNFNGREVHGMEEVMRVFWEIMEKLGVDHQTIHDVKWQGDKLEVHSYLDINGRRHKLRIELQVIDGVIRSVHFEIE | 1.21
3 | DEDEREMERWFQEILEDLRTGDFRSISRMVDPHAKVDVNGQERHGREQVENLIRRFKNATIHITHVDLDVVNGKLVVRIDTRLHVDGQTRKTEIIVISNKVNGRWFMESLSFKIE | 0.904
4 | DEDERERRWIYQLFLYLFITGDFHTLENLFDPHMRLHYGNKEYHGREEVSKTMLKIWRDLGVKYLSLRHFHIEIFNGRVSLHFYGEQDINGVHRDIEFRVDLVKINGKWVIEQIDLRIN | 1.62
5 | DEDERESHNFMHEMEKAAKTGDWRKFEEMFDPDVRTIIGDKEDHGWEVAVKLFLDLGIKVLKVKRVDVVDGRLELEMELHFNGVIRKVTLRTKKVNGRWQVKELRFE | 1.57
6 | DEDERETRFIIKLLLETIQTGDEKTFEELLDPSVRLVVGDKIIHGRDVLSEFFSHARFHRIEIHNMESQGDKAHIDIRVDGKFNGKRKTTEVNLHIEKFDGRWRIKEFRIH | 2.08
7 | DEDEREVAEVLRRWLHDFLTGDEKEFHRLVDPHVKYREHYNGQQIHVHGRENLFEFIRRRNEEMRMEILIRDWKVQGDYAESEGEVIFDINGRIHSVDLRVEIIVVNGRVSKVHISVN | 0.847
8 | DEDEREVKHWLKILLHELWTGDFRNVSRLMDPHARLLINGVTVVGREEFLEVLRRVDHIELRIRDMKVIDGRIHAETELIEHFDGRTFIHDTHMRAKKVDGRWRIESIEIR | 1.31
9 | DEDERFAEIAIRLMIEIIKTGDEREEDKLIDPHARLIVGDWLIHGRDELVRYLTHLRIEHLEIKTWEVVNGRVKLTTRIHLRINGRHHETDQVNIIEKVNGRWYMKLIEFK | 1.19
10 | DEDERFFHEMLELWMHIYETGDWNRLHELFDPNALLLIGDKQVHGREKVTHYLFEMVHRADHSESRVRELHVIDGRVHIHLELHIDQGDKHLRIEIFLHAKKVNGRWVFTKLELR | 1.99
11 | DEDERFTKFAWELLVKALVTGDEDSLKDLFDPHARIFYNGRINHGRESFVKHLMEIRFKRIEMRRFDFFDGRVRMEGEVEGEVDGKEDHYRIEIVVKKYDGRWELKEFRLV | 1.68
12 | DEDERHARKVLELWLQSLLTGDEELTDHLLDPRVKILVDGVELHGREHARMFHRHIHMRIDHMKDFHIHSFTSVGDKVHVDIRIHFRQGDKEYRLNQRTLILKVNGRWVIEKIEVD | 2.22
13 | DEDERHFEIWFKLFIHLYLTGNEETLRHLADPNVRTVYNGRDFHGWDEMVRIHHEMFDFYKGLRVEKVNVESVEIFDGRVLILLRIRVLVNGRTTDDHIHVEAKKIDGQWIIESVDFR | 1.65
14 | DEDERHMEKMWRDWVHARYTGDEHRLDELFDPDARMLIDGVDAVGREEVHRLLHKMLKRLGIKHIEHVRITHIEIQGDKIHIENEIRGIVGDKTTTVEVHLVIIKVDGQWRIRSVEEK | 1.14
15 | DEDERHMRQTLEDYDHAVETGDWKRLRELADPDYKTDIDGVEIHGMELFWEHLRREVEKYKNVKVEFRLKRIRSIGDFMEIDGRLTLKYGDKEIRVRVIIHAIKVDGRWLFHRMIFG | 1.69
16 | DEDERHTKILIDLLLHNSHTGDEHVLRHLFDPNVKIVIGDKELIGREYADQFIKRVDVIDHIEIKDWHTIGDKVHFHGETEGVIDGRKVHTHVKLEMKKFDGRWLIHRIVIR | 1.95
17 | DEDERISRNFVRLILHAIRTGNENMIKTMADPNDRLEVGDKEFHGRELALEFWFRFDVLKEFHIRSVHSQGDKLHIEGESTWVIGDKEIRTTEHRLIIKIDGQWVLTEIKME | 1.62
18 | DEDERLAEEAVKLLIEINRTGDEDLFERNIDPNAQSDINGRRLHGMEQISEFLLRIKNIKLQPRHVDVQGDKMRVEGHLHINGQTHEVRWFVTKINGVWLITEIRVH | 1.12
19 | DEDERLAEEFFEKFTRDIYTGDWRALRELLDPNVRLHINGRNHHGREELLYFEIEIYRRADHVEHRLREVTLFDGRVHVDVEIILHQGDKLIVLHVILFMEKVDGRWILRRKEVR | 1.5
20 | DEDERLAKHFIELFIESFLTGDFDEVRKLIDPHTRVEIIIGDKVIEDHGWEAYSRTFNHLGIDHIHREDFRVTLVNGRAVLRLQFRIEIGDKEFDMHIHVFSNKINGRWHVERILIYVR | 2.34
21 | DEDERLEEEALRLLRHSLHTGDERIITELADPHARLEFNGREFHGREDFLRFIVHMRVRHEEEKSVRLQGDKVDVNWHMVVLFDGQLRRQDVRLILWKFNGRWHIKSIRIE | 1.5
22 | DEDERLFEEATRLWSKLVLTGDEKRLEELMDPNVRVVIGDKVFHGREIAVKVVKELRVEHIIIRRWEIIGDKAHIRGESRGIVNGVERVSTLDLTLLKIDGRWIIESIRLE | 1.09
23 | DEDERLLKELLESLIKSHRTGDWEHLRENADPRTRLEIGDKEIIGMEKVTHFWERERKRADHEHIEIHDMKIYDGVAHVDTRLHFHFNGVDITLEFRLIMLKVNGRWILKSEHLK | 0.133
24 | DEDERLLRDHLKLFQDAVRTGDEEVLSELLDPNVRLHIGDKTIHGREIVIDILRTEMRHLGVDYDETHLHHINIQGEWVHLHTELRLKVNGQRITLWTRLYLYKIDGKWIVTQIQLH | 2.3
25 | DEDERLMQKAMEELWDIWHTGDEDRYNELADPHDRFEVGDKEIHGREETSHFLTEFRKRVKGIRILTDRFDHRRIGDKVVLRLETRIEIDGVRIKTRLIFIIRKFNGKWHIHSIIVIIE | 0.673

Row | Sequence | protease stability score
26 | DEDERLSRELLKRWMTSIMTGDETSSQHLADPHDRIDINGREFHGRELATWVAHHLRIDSIQERHQEIQGEKLIVLGETDYIVDGVKQIRRTEYILRKFNGRWFFESIIFR | 0.9
27 | DEDERLYRIALEFLIEWHETGDEDEITRNVDPDARVDINGRNLVGREKVHRTLKELGINVLHIHRVHIVNGRLDVDGTVRFNGRTHRTRIIMLKVDGKWILDWLFIH | 1.56
28 | DEDERMIDEYLKKLVKSLITGDEETFTRLVDPHARHDFNGVEYHGWLWLHMVRKRADHFEVRIKNSEVQGDKLRLDFELIFRQGDKTITLKIQVIITKVDGRWIITSIDHD | 1.79
29 | DEDERNAHRMTQILIRSQETGDEHELMRLLDPHARVIIGDKHIHGWEEFSKLEHEYWERYKNMTLHVRLRHVEVINGVAHIHTHITININGKEDRFEIEIFFLKINGRWVLHSFRVD | 0.799
30 | DEDERNHEEIWELFLRVVMTGDWNLHKEMLDPHVRIDIDGVHIHGREEAVKHIRHLRVELNHFHIEDVKIVNGRARIQTHEEVTIRIDGVRIETRRSTELIMIKVDGRWLLHHEIVR | 0.524
31 | DEDERNLREFLRRMVEHWLTGNEESLKRLIDPEVRIHIGDKDLVGREEEERYHRQMRSDRLHVELDSVDIVGDKLQLHITIHIDSIVNGRRLDIKYRHTLHVRKINGRWILEESEIK | 0.814
32 | DEDERNVRDVAYLLLHALWTGDEDMLRHLIDPDVRFHIDGRHHHGWLRVLEMFREIRIHDFRMHDEKFRIIGDKAEARFDGESIVVIDGKEVDRRVEERYIIVKVNGQWRLKMIEVHLR | 1.55
33 | DEDERQLEESLKHWIKALETGNEEEVMRLLDPNVKIEIGDKDLHGMEAEEERLRKVKGMRIEFRLRDMKHIGDKIDIDGELRLNFNGVDIKSKIIIFAHKFNGRWINRRIIVL | 1.83
34 | DEDERRDRELAEHFEHLWMTGDEETLVENLDPNARVKVGDKENHGREAFILFLREFGIDHFEFRDSKIVNGQVHIDGEIDWNGRRTRVEHIVKIVDGKVKHWEIRIK | 1.52
35 | DEDERSAKHYLDLWHHALETGDEHEEERLLDPHVKVDIGDKTSHGRENTRDIIRRLLEELGADVLEFHIRHVNVVNGRVHLDGELVIKVGDYTLRSRTRLLVLKVNGRWFIERIKIE | 1.09
36 | DEDERTFRTAITLLLRDMHTGDEESFEKMVDPRTRLRYNGKELHGRDAYEFSLEELGVKHIEFKDMRVQGDFIWLEGTVNVNGKKIKLILIILKVDGKWIIHSIHLH | 0.799
37 | DEDERTMRIAFEMFKHNLETGDEDVIRRFVDPHVKIDIDGVHLHGWEVMYERIMRFDHVDIRLRDIRTFNGRAEIDGEILVEINGVSIEKRLIIHSEKIDGRWILRSHRII | 0.89
38 | DEDERVLEEALRLWLHWVATGNETKLMEMLDPNVRLDIGDKHTHGREKFHEFMKHHKELWGVTRFHLELKRYSIQGDKVEIDIEVDINGRHFDVHIRILKIDGKWRLEQVRIN | 1.51
39 | DEDERVMRTLLELLLRSHNTGDEDSYKQLLDPDTRVHVDGVDFHGMEFARTLARHWRVKHVELKDVRSQGNKIEADIHTVGVINGQELRTETHIITEKVNGRWVLHSISIR | 1.46
40 | DEDESLAKWAVEVLFEDLRTGDEDHLRRLMDPDTRFIIGDKIFHGREKAEEWLRLNRKRVDHLESFHIHHITVDENHLRVHGRVVGTFDGVEDKYETHIFARKVNGRWHHRQLKIK | 1.49
41 | DEDETFMREFLKELIHSLHTGDEETLLRLADPHTRVVINGRTLIGWETFDKLLKEARVHHHEIKRVRFFDGQVETDTRTDGRIDGVRVEIETTLIVKKVNGRWYMRSVIIT | 0.686
42 | DEDEYMAKEMSELLIHLLLTGDEEHFRKFADPNVRLIIGEFESHGREEALRLLRILHRDYGIKHIHFRLRHIHQIGDKVNIHSQVELRQGDKHNSHEMTVIIWKVNGRWVIHSIDIV | 2.38
43 | DEDFDIVKHIFDVYIDAILTGDFRTLERNIDPDAKLHFNGREYHGWEIVVKFMLEIRVHDVQYKTMHIYDGRVELHGRNDGVIDGQKTETDTKIIMVKIDGRWHVRHIRVG | 1.33
44 | DEDFEHARRVLELFIESVETGDENSYRRLADPNTRYHAENHEHHGREYYIRLLEELRMSVHDLKIESWRLVDGQLRLNTRTDLHVNVNGQRIRLDTETHIVLNKINGRWYIHIIYIG | 1.27
45 | DEDFELAERFLEKWINVSRTGDEKKAHELVDPNVLINIGDKQIHGRERVVEWVSHIRIHHLEIHHFDVQGDKLIIDGRMDGTVNGRRVDHHIRIIISKVNGRWQTKTIDHE | 0.665
46 | DEDFENASRTLKKFYEDEATGDEDALSELVDPNTRLDINGQQVHGWENFRKWIHHLGIKHVILHIRRYDSQGDKLHLETEEVHDFNGVEERRDTRLLLLKVDGKWIFKEIEVK | 1.41
47 | DEDFEYALRVAKLFWEAVFTGDEKTLEHLLDPNVRIDINGRHIHGREELIKLFHEIRIHMHEIRIDDIRVQGNYLLVHGHVILEVNINGRTTRIETEVRIEISKVNGRWIIRQSEHT | 2.08
48 | DEDFRDAKHMWELYLELIHTGDEERLRKLMDPNVRVEVGDKELHGRHHYIKWVREMRMRIEDVRIRTVRNINGVVHIHGELRGEYVYGDKRVHFETEVELVLLKVNGRWKIHEEHIH | 1.75
49 | DEDHDIIREALERWRHYVHTGDWRSLLKMMDPHVRNDVDGVDIIGREEASRYYREVFERLGVDHIDIHLRDMQIQGDKVTVHSELELNYNGRRFMHDIEIISVKVDGRWSIRSVFSK | 1.41
50 | DEDHDLQEEILKRFEHLFRTGDWKELHHLLDPHARTRWDGRTRHGRDQVLDVMREMGADHLTIHHYNIQGEKIRIDFDLEIGDKRHKLDIHVSKINGKWIVKHIEIDTR | 1.03
